Laboratory results from patent US7285703B2, “Plant like starches and the method of making them in hosts” (BASF Plant Science GmbH, priority 1998, dated 2007).

How the values were obtained:
[1] = substrate: Nc1ncnc2c1ncn2[C@@H]1O[C@H](COP(=O)(O)OP(=O)(O)O[C@H]2O[C@H](CO)[C@@H](O)[C@H](O)[C@H]2O)[C@@H](O)[C@H]1O; test: ADPGlc kinetics of starch synthase SSIIb-2; format: biochemical, maize; details: 37° C.
Source text: FIG. 60. SSIIb-1 and SSIIb-2 construct diagram. Two forms of SSIIb were constructed in the pET expression system (see Methods). pExs9 encodes SSIIb-1 which has the N-terminal sequence GSVGAALRS (SEQ ID NO:70), the putative full-length maize SSIIb which has the N-terminal sequence AAAPAGEE (SEQ ID NO:2). […] A depiction of the waxy gene, encoding GBSS which has the N-terminal sequence ASAGMNVV (SEQ ID NO:67), is also included for comparison. The amino acid motif KTGGL (SEQ ID NO:10), the putative binding site for ADPGlc, is indicated by the triangles. The KTGGL (SEQ ID NO:10) motif is located 18 amino acids from the N-terminus in GBSS, while the motif is 158 amino acids from the N-terminus in maize SSIIb.
5 mL of supernatant were used to assay STS and SBE activities as previously described (Preiss) with minor modification. […] […] The unincorporated [^14C]-ADPGlc was separated with Dowex anion exchange column (200-400 mesh, Sigma Chemical Co.). […] SBE activity was determined by phosphorylase stimulation assay. One unit of activity is defined as 1 mmol Glc incorporated into the a-glucan per min at. 30° C.
For the recombinant SS purification, the cell pellet was resuspended in sonication buffer (50 mM Tris-acetate, pH 7.5, 10 mM EDTA, and 5 mMDTT; 7 ml buffer per gram of cell mass), and cells were lysed using a Fisher 550 Sonic Dismembrator with 5×1 min. bursts with 30 sec. intervals. The homogenate was centrifuged at 9600 g for 30 minutes. SSI in the supernatant was then precipitated by slowly adding neutralized saturated ammonium sulfate to 40% saturation. After stirring on ice for an additional 50 minutes, proteins were collected by centrifugation at 12500 g for 45 minutes. The protein pellet was then redissolved in buffer A (50 mM Tris, pH 5.5, 1 mM EDTA, and 5 mM DTT) containing 0.1 M KCl and dialyzed against the same buffer, with one change of buffer. After dialysis, the sample was centrifuged at 13000 g for 20 minutes to remove insoluble materials. The resulting supernatant was loaded onto […] pre-equilibrated with dialysis buffer, and the flow through was collected. The column was washed with 10 column volumes of buffer a containing 0.1 M KCl, and then with buffer A containing 0.5 M KCl and 0.5 M maltose, collecting fractions during both washes. The active fractions were pooled and dialyzed overnight against buffer A, with one change of buffer. The next day, the amylase column sample was filtered and applied to a mono Q 5/5 FPLC column (Pharmacia). After washing with buffer A, a 20 ml 0-0,4 M KCl gradient was employed. […]

[2] = substrate: Nc1ncnc2c1ncn2[C@@H]1O[C@H](COP(=O)(O)OP(=O)(O)O[C@H]2O[C@H](CO)[C@@H](O)[C@H](O)[C@H]2O)[C@@H](O)[C@H]1O; test: ADPGlc kinetics of starch synthase SSIIb-1; format: biochemical, maize; details: 37° C.

Protein	Km ([1]; other: with amylopectin) [mM]	Vmax ([1]; other: with amylopectin) [μmol min^−1 mg^−1 protein]	Km ([1]; other: with glycogen) [mM]	Vmax ([1]; other: with glycogen) [μmol min^−1 mg^−1 protein]	Km ([2]; other: with amylopectin) [mM]	Vmax ([2]; other: with amylopectin) [μmol min^−1 mg^−1 protein]	Km ([2]; other: with glycogen) [mM]	Vmax ([2]; other: with glycogen) [μmol min^−1 mg^−1 protein]
maize starch synthase SSIIb-2, N-terminally truncated SSIIb, first 144 amino acids deleted (492 amino acids), N-terminus MNVVVVASE (SEQ ID NO:71) (Zea mays) (protein) MNVVVVASECAPFCKTGGLGDVVGALPKALARRGHRVMVVIPRYGEYAEARDLGVRRRYKVAGQDSEVTYFHSYIDGVDFVFVEAPPFRHRHNNIYGGERLDILKRMILFCKAAVEVPWYAPCGGTVYGDGNLVFIANDWHTALLPVYLKAYYRDNGLMQYARSVLVIHNIAHQGRGPVDDFVNFDLPEHYIDHFKLYDNIGGDHSNVFAAGLKTADRVVTVSNGYMWELKTSEGGWGLHDIINQNDWKLQGIVNGIDMSEWNPAVDVHLHSDDYTNYTFETLDTGKRQCKAALQRQLGLQVRDDVPLIGFIGRLDHQKGVDIIADAIHWIAGQDVQLVMLGTGRADLEDMLRRFESEHSDKVRAWVGFSVPLAHRITAGADILLMPSRFEPCGLNQLYAMAYGTVPVVHAVGGLRDTVAPFDPFNDTGLGWTFDRAEANRMIDALSHCLTTYRNYKESWRACRARGMAEDLSWDHAAVLYEDVLVKAKYQW	0.32 ± 0.03	90.9 ± 4.2	0.32 ± 0.04	130 ± 6	–	–	–	–
maize starch synthase SSIIb-1, putative full-length SSIIb (637 amino acids), N-terminus … (SEQ ID NO:70) (Zea mays) (protein, N-terminus printed as both … and AAAPAGEE) AAAPAGGESEEAAKSSSSSQAGAVQGSTAKAVDSASPPNPLTSAPKQSQSAAMQNGTSGGSSASTAAPVSGPKADHPSAPVTKREIDASAVKPEPAGDDARPVESIGIAEPVDAKADAAPATDAAASAPYDREDNEPGPLAGPNVMNVVVVASECAPFCKTGGLGDVVGALPKALARRGHRVMVVIPRYGEYAEARDLGVRRRYKVAGQDSEVTYFHSYIDGVDFVFVEAPPFRHRHNNIYGGERLDILKRMILFCKAAVEVPWYAPCGGTVYGDGNLVFIANDWHTALLPVYLKAYYRDNGLMQYARSVLVIHNIAHQGRGPVDDFVNFDLPEHYIDHFKLYDNIGGDHSNVFAAGLKTADRVVTVSNGYMWELKTSEGGWGLHDIINQNDWKLQGIVNGIDMSEWNPAVDVHLHSDDYTNYTFETLDTGKRQCKAALQRQLGLQVRDDVPLIGFIGRLDHQKGVDIIADAIHWIAGQDVQLVMLGTGRADLEDMLRRFESEHSDKVRAWVGFSVPLAHRITAGADILLMPSRFEPCGLNQLYAMAYGTVPVVHAVGGLRDTVAPFDPFNDTGLGWTFDRAEANRMIDALSHCLTTYRNYKESWRACRARGMAEDLSWDHAAVLYEDVLVKAKYQW	–	–	–	–	0.40 ± 0.02	72.8 ± 2.8	0.71 ± 0.01	76.8 ± 3.2
